Experimental data: the supplement of paper PMC10126150
± gives the standard deviation of the averaged measurements.
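Also: ATP exposure 15 min at 22 °C before imaging.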

These sequences were tested on ATP (assay: switch fluorescence ratio, 500 uM ATP over buffer (Cy3 cluster intensity, sum of 5 cycles each) (fold (ratio)); higher = stronger signal-on switching upon ATP binding; sequences stand for … in TCGTCGGCAGCGTCAGATGTGTATAAGAGACAGTTTTTTTTTTTTTTTTTTTTTTTTT…TC). Conditions: aptamer strand: ATP DNA aptamer (quencher-CACCTGGGGGAGTATTGCGGAGGAAGG + anchor), 100 nM annealed; ATP concentration: 500 uM.
Procedure, shortened: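 Per cluster, summed Cy3 intensity from the target cycles was divided by that from the buffer cycles to give the fluorescence ratio, then averaged per switch-domain sequence. Clusters outside 100-1000 RFU were excluded. The Cy3-labelled switching-strand clusters, on a modified Illumina MiSeq flow-cell, were annealed to 100 nM quencher-labelled ATP aptamer and imaged in selection buffer, then after 15 min with 500 uM ATP at 22 °C, for five cycles with NaOH stripping and re-annealing between them.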
AAAAAAACA showed a switch fluorescence ratio of 1.2 ± 0.11. AAAAAAATAG showed a switch fluorescence ratio of 1.03 ± 0.014. Work on AAAAAACTAT yielded a switch fluorescence ratio of 1.02 ± 0.018. For AAAAAACTTT, the switch fluorescence ratio was 1.05 ± 0.027. AAAAAAGCAG showed a switch fluorescence ratio of 1.024 ± 0.0014. Work on AAAAAAGGAT yielded a switch fluorescence ratio of 1.024 ± 0.0086. AAAAAAGTTT gave a switch fluorescence ratio of 1.02 ± 0.033. For AAAAAATCGC, the switch fluorescence ratio was 1.09 ± 0.16. Work on AAAAAATTGT yielded a switch fluorescence ratio of 0.999 ± 0.019. Sequence AAAAACAACT has a switch fluorescence ratio of 1.024 ± 0.0076. For AAAAACACTT, the switch fluorescence ratio was 1.04 ± 0.022. AAAAACAGGG was tested, and the switch fluorescence ratio was 1.16 ± 0.097. With AAAAACCTCG the switch fluorescence ratio was 1.05 ± 0.013. In the case of AAAAACGCTT, the switch fluorescence ratio is reported as 1.01 ± 0.045. With AAAAACGGTG the switch fluorescence ratio was 1.05 ± 0.084. Sequence AAAAACGTCT has a switch fluorescence ratio of 1.1 ± 0.016. For AAAAAGAATG, the switch fluorescence ratio was 0.973 ± 0.03. AAAAAGATGA gave a switch fluorescence ratio of 0.9626 ± 0.0028. AAAAAGGGCG was tested, and the switch fluorescence ratio was 0.989 ± 0.02. Work on AAAAAGGGTA yielded a switch fluorescence ratio of 0.988 ± 0.05. Sequence AAAAAGGGTG has a switch fluorescence ratio of 1 ± 0.045. With AAAAAGGTTC the switch fluorescence ratio was 0.991 ± 0.017. For AAAAAGTCTC, the switch fluorescence ratio was 0.9891 ± 0.0092. AAAAAGTGGG showed a switch fluorescence ratio of 0.992 ± 0.039. AAAAAGTTTT was tested, and the switch fluorescence ratio was 0.985 ± 0.058. Work on AAAAATAATT yielded a switch fluorescence ratio of 0.983 ± 0.028. AAAAATCACT gave a switch fluorescence ratio of 1.04 ± 0.039. In the case of AAAAATCTCT, the switch fluorescence ratio is reported as 1.02 ± 0.033. AAAAATCTGC was tested, and the switch fluorescence ratio was 1.03 ± 0.12. Sequence AAAAATGGCT has a switch fluorescence ratio of 1.04 ± 0.091. In the case of AAAAATGTCA, the switch fluorescence ratio is reported as 0.979 ± 0.045. With AAAAATTAAA the switch fluorescence ratio was 1.002 ± 0.0018. Work on AAAAATTAAG yielded a switch fluorescence ratio of 1.03 ± 0.029. With AAAACATCGC the switch fluorescence ratio was 1.015 ± 0.0029. In the case of AAAACATTCG, the switch fluorescence ratio is reported as 1.16 ± 0.12. In the case of AAAACATTTT, the switch fluorescence ratio is reported as 1.03 ± 0.049. For AAAACCAGCG, the switch fluorescence ratio was 1.03 ± 0.047. AAAACCGGAT was tested, and the switch fluorescence ratio was 1.11 ± 0.18. AAAACGAATT was tested, and the switch fluorescence ratio was 1.01 ± 0.044. Work on AAAACGAGTG yielded a switch fluorescence ratio of 1.02 ± 0.023. Sequence AAAACGCAGG has a switch fluorescence ratio of 1.02 ± 0.053. In the case of AAAACTTGAA, the switch fluorescence ratio is reported as 1.07 ± 0.086. Sequence AAAAGACCCG has a switch fluorescence ratio of 1.07 ± 0.044. AAAAGAGCGC gave a switch fluorescence ratio of 1.08 ± 0.072. AAAAGCGATC gave a switch fluorescence ratio of 1.14 ± 0.038. AAAAGCGTGG showed a switch fluorescence ratio of 1 ± 0.019. For AAAAGGAGAC, the switch fluorescence ratio was 1.01 ± 0.028. AAAAGGATAG gave a switch fluorescence ratio of 0.954 ± 0.017. AAAAGGATGG gave a switch fluorescence ratio of 0.979 ± 0.021. AAAAGGCATA showed a switch fluorescence ratio of 1.03 ± 0.046. Sequence AAAAGGCCGG has a switch fluorescence ratio of 1.05 ± 0.14. In the case of AAAAGGCGTG, the switch fluorescence ratio is reported as 1.01 ± 0.021. AAAAGGGAGT gave a switch fluorescence ratio of 0.972 ± 0.013. In the case of AAAAGGGGCG, the switch fluorescence ratio is reported as 1 ± 0.019. AAAAGGGTAG showed a switch fluorescence ratio of 1.01 ± 0.018. Work on AAAAGGTCGT yielded a switch fluorescence ratio of 0.999 ± 0.019. AAAAGGTGAA was tested, and the switch fluorescence ratio was 1.04 ± 0.089. In the case of AAAAGGTGG, the switch fluorescence ratio is reported as 0.983 ± 0.011. AAAAGGTGTA showed a switch fluorescence ratio of 0.99 ± 0.0095. In the case of AAAAGGTTTT, the switch fluorescence ratio is reported as 1 ± 0.033. AAAAGTATGG was tested, and the switch fluorescence ratio was 1 ± 0.015. AAAAGTGGGT showed a switch fluorescence ratio of 0.9942 ± 0.0081. Sequence AAAAGTGTAT has a switch fluorescence ratio of 0.98 ± 0.03. AAAAGTTTGC was tested, and the switch fluorescence ratio was 1.02 ± 0.056. Work on AAAAGTTTTT yielded a switch fluorescence ratio of 0.997 ± 0.025. Work on AAAATAATCT yielded a switch fluorescence ratio of 0.9793 ± 0.004. AAAATATGG was tested, and the switch fluorescence ratio was 0.997 ± 0.031. AAAATATGTT showed a switch fluorescence ratio of 1 ± 0.023. In the case of AAAATCAGAG, the switch fluorescence ratio is reported as 0.97 ± 0.024. AAAATCGTCT was tested, and the switch fluorescence ratio was 1.08 ± 0.086. AAAATGATAG gave a switch fluorescence ratio of 1.06 ± 0.072. In the case of AAAATGGCTT, the switch fluorescence ratio is reported as 0.988 ± 0.034. AAAATGGGCT gave a switch fluorescence ratio of 0.996 ± 0.038. AAAATGGTTG showed a switch fluorescence ratio of 1.04 ± 0.032. AAAATGTGAC showed a switch fluorescence ratio of 1.039 ± 0.007. AAAATGTTTC was tested, and the switch fluorescence ratio was 1.02 ± 0.02.
